Test results from the supplement of paper PMC9170038.

Tests used:
MS2 coat protein [1] = test: apparent KD of MS2 coat protein, switch ON state; designed switch direction (-1 OFF switch, 1 ON switch): -1; higher = weaker reporter binding; conditions: FMN input: 0 or 200 uM; Eterna round: R93 (includes R88 designs)
Procedure, shortened: (§1)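 With or without constant ligand, designed RNA switches in 100 mM Tris-HCl pH 7.5, 80 mM KCl and 4 mM MgCl2 were titrated with SNAP-549-labelled MS2 coat protein. Concentrations went up in twofold steps from 0.7 or 1.5 nM to 3 µM. The switches had been transcribed on-chip from Illumina sequencing clusters, and apparent KD is the per-design median of normalised cluster binding-curve fits.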

MS2 coat protein [2] = test: apparent KD of MS2 coat protein, switch OFF state (with FMN for OFF switches, without FMN for ON switches); designed switch direction (-1 OFF switch, 1 ON switch): -1; higher = weaker reporter binding; conditions: FMN input: 0 or 200 uM; Eterna round: R93 (includes R88 designs)
Procedure, shortened: as §1

Sequence	apparent KD of MS2 coat protein (MS2 coat protein [1]) [nM]	apparent KD of MS2 coat protein (MS2 coat protein [2]) [nM]
AAAAAGGCAGGAUAUACGAAGCUAAGACAAAUAAGCAAGGGACAUGAGGAUCACCCAUGUAGAAGGGCCAAAAA [Exclusion 2-01... 60% 3]	41.1	132
AAAAAGGGAGGAUAUACAUGAGGAUCACCCAUGUAAAAAAAAAAAAAGGGAAAAAAAAGUAGAAGGCCCAAAAA [Apepi]	50.1	52.6
AAAAAGGGAGGAUAUACAUGAGGAUCACCCAUGUGUCAGACGAAAAAGAGUCUGAAGUGUAGAAGGCCCAAAAA [65%, Moding Exclusion3-cac2, 1]	25.9	40.7
AAAAAGGUAGGAUAUACAUGAGGAUCACCCAUGUAAAAAAAAACAAGAGAAAAAAAAUGUAGAAGGGCCAAAAA [Ex3 Malc#4]	14.3	16.9
AAAAAGGUAGGAUAUACAUGAGGAUCACCCAUGUAAAAAAAUGGAGAAAAAAACAAUUGUAGAAGGGCCAAAAA [Ex3 Malc#7]	38.8	61.6
AAAAAGGUAGGAUAUACGAAAAAAAAGGGUAAAAAAUAAAAACAUGAGGAUCACCCAUGUAGAAGGACCAAAAA [Mat - Exclusion 2 - Tesla mod - D41]	30.5	36.7
AAAAAGGUAGGAUAUACGAAAAAAAAGGGUAAAAUAAAUAAACAUGAGGAUCACCCAUGUAGAAGGACCAAAAA [Mat - Exclusion 2 - Tesla mod - D38]	23.5	161
AAAAAGGUAGGAUAUACGAGGAGAAAUAAUAAAUAAAUAAAACAUGAGGAUCACCCAUGUAGAAGGACCAAAAA [Ex 2 sub 2]	27.6	26.9
AAAAAGUCAGGAUAUACAGAAAAAAAAACGAAAAAAAAUCUGUAGAAGGGACAUGAGGAUCACCCAUGUAAAAA [Ex 4 May 12]	47.6	33.6
AAAAAGUCAGGAUAUACAUGAGGAUCACCCAUGUGAAAGAACGAAAAACGAAAAGCAAGUAGAAGGGACAAAAA [Ruby 78]	13.1	14
AAAAAGUCAGGAUAUAUGCGAAAAAUAAAAAAAAUAAAAACAUAGAAGGGACAUGAGGAUCACCCAUGUUAAAA [Ex 4 May 17]	44.7	29.3
AAAAAGUCAGGAUAUGUACAAAAUAAAAUAAAAAUAAAAGUACAGAAGGGACAUGAGGAUCACCCAUGUAAAAA [Ex 4 May 11]	38.6	36.6
AAAAAGUGAGGAUAUACAUGAGAAAAAAAAAUGUAAAAAAAACAUGAGGAUCACCCAUGUAGAAGGCACAAAAA [Ecxl-II]	40.8	83.5
AAAAAGUGAGGAUAUACAUGAGGAUCACCCAUGUAAUAAAAAAAAAGGGUGGAAGAAAGUAGAAGGCACCAAAA [Ex 3 May 48]	48.2	142
AAAAAGUGAGGAUAUACAUGAGGAUCACCCAUGUGUAUAAAAAAUUACACGAAAGAAUGUAGAAGGCACUAAAA [JL Mayanne Mod 3]	18.2	42.8
AAAAAGUGAGGAUAUACAUGAGGAUCACCCAUGUUAAAAAAAAAAAAAUAUAAAAAUAGUAGAAGGCACAAAAA [Default title]	48.8	41.3
AAAAAGUGAGGAUAUACAUGAGGAUCACCCAUGUUAAGGUAAUAUAUAUAUAUAUAUAGUAGAAGGCACAAAAA [Default title]	32.4	31.5
AAAAAGUGAGGAUAUACGGUGUGGAGUAGACACAACCAGGCGUAGAAGGCACAUGAGGAUCACCCAUGUCCAAA [EX4 Malc#15]	25.9	29.1
AAAAAGUGAGGAUAUGGUAAAAAAAAAAAAAAAAAGCACCUCCAGAAGGCACAUGAGGAUCACCCAUGUCGAAA [Jolly's Folly 6 - Jieux - Exclusion 4]	24.4	31.3
AAAAAGUGAGGAUAUGUCAAAAGUCACAAAAGUGACAAAAGACAGAAGGCACAUGAGGAUCACCCAUGUGAGGG [Mod of Eli - Late G + early G segment 4]	110	103
AAAAAGUGAGGAUAUGUCAAAAGUCACAAAAGUGACAAAAGACAGAAGGCACAUGAGGAUCACCCAUGUGGAAA [Mod of Eli - Late G + early G segment 2]	32.1	28.6
AAAAAGUGAGGAUAUGUCAAAAGUCACAAAAGUGACAAAAGACAGAAGGCACAUGAGGAUCACCCAUGUGGGAA [Mod of Eli - Late G + early G segment 1]	56.1	121
AAAAAGUGAGGAUAUUCGGAUAGGAAAACGAAAACCUAUCCGAAGAAGGCACAUGAGGAUCACCCAUGUGGAAA [67% Ecls-II - Early G + late G segment 2]	22.6	27.6

Sequence	apparent KD of MS2 coat protein (MS2 coat protein [1]) [nM]	apparent KD of MS2 coat protein (MS2 coat protein [2]) [nM]
AAAAAUGGAGGAUAUACAUGAGGAUCACCCAUGUGUAACUAUACUAAGCACUCCUCACGUAGAAGGCCAAAAAA [Gilly Gone Silly 13 - Jieux - Exclusion 3]	55.3	113
AAAACACAUGAGGAUCACCCAUGUGAGGAUAUGAACGAAAAUAAAUAAAAAUAAAAGUUCAGAAGGCACAAAAA [66%, Wbt, 11]	24.2	36.1
AAAACACAUGAGGAUCACCCAUGUGAGGAUAUGCUAUGGAAAAUAAAAAUAAAACAUAGCAGAAGGCACAAAAA [Denovo 12]	20.3	32.3
AAAACACAUGAGGAUCACCCAUGUGAGGAUAUGCUAUGGAAAUAAAAAAUAAAACAUAGCAGAAGGCACAAGGA [Mat - Exclusion 1 - Eli mod - D45]	31.1	49.1
AAAACGGUAGGAUAUACGAUUUGGAACUAAACCGAGGAACCACAUGAGGAUCACCCAUGUAGAAGGGCCAAAAA [Mat - Exclusion 2 - JL mod - D81]	18.4	14.7
AAAACGGUAGGAUAUACGAUUUGGAACUAGACCGAGGAACCACAUGAGGAUCACCCAUGUAGAAGGGCCAAAAA [EX2 Malc#17]	15.6	10.7
AAAAGCUCAGGAUAUACGGUCUGUUGUUGAGAAAUAAAAAAACAUGAGGAUCACCCAUGUAGAAGGGAGCGAAA [Exclusion2-cac3]	44.4	111
AAAAGGUCAGGAUAUACAAAAAAAAAAAAAAAAAAAAAAAAGUAGAAGGGACAUGAGGAUCACCCAUGUGAAAA [Exclusion 4 - Omei 2]	64	40.3
AAAAGUCGAGGAUAUGCAAAAUGAUUGCGAAAGCAAUCAAAACAUGAGGAUCACCCAUGUAGAAGGCGACAAAA [Fiskers Exclusion 2 D3]	19.6	11.1
AAAAGUUCAGGAUAUACAUGAGGAUCACCCAUGUAGAAAGGAAGUGUAAAAAAAAAGUGUAGAAGGGAGCAUGA [MS2 Riboswitches On Chip Exclusion 3 wbt2]	22.2	21.8
AAAAUACAUGAGGAUCACCCAUGUCAGGAUAUUCCUGCAGCCUUGAAUAAGGGCUGGUGAAGAAGGGACGGUGA [Ancele]	33.4	84.6
AAAAUACAUGAGGAUCACCCAUGUGAGGAUAUCUUAAAGGGAAUAAAAUAACUCAAAAAGAGAAGGCACAAAAA [Ex 1 May 29]	35.8	44
AAAAUACAUGAGGAUCACCCAUGUGAGGAUAUCUUAAAGGGAAUAAAAUAACUCAAAAAGAGAAGGCGCAAAAA [Ex 1 May 30]	34.6	32
AAAAUGUCAGGAUAUGCGAAGGCAUCUGACAGAUGAGGAUUGCAGAAGGGACAUGAGGAUCACCCAUGUAAAAA	66.7	41.7
AAACCACAUGAGGAUCACCCAUGUGAGGAUAUGAACGAAAUAAAAUAAAAAAUAAAGUUCAGAAGGCACAAAAA [Mat - Exclusion 1 - Eli mod - D15]	17.6	22.9
AAACGUUGAGGAUAUACAAAAGGGUAUAAAUCAAAAAAAACACAUGAGGAUCACCCAUGUAGAAGGCAACGAAA	128	65.6
AAACGUUGAGGAUAUACGAAAAAGGGUAGGUCAAAUAAAACACAUGAGGAUCACCCAUGUAGAAGGCAACGAAA	333	3.66
AAAGGACGAGGAUAUACAUGAGGAUCACCCAUGUAAAAAACAUAAGAAAAGAAGUUAUGUAGAAGGCGUCCAAA [69%, Moding Meechl, 13]	16.4	17.3
AAAGGAUCAGGAUAUGUGUGGGAAAAGUGUGUCCAAAAAAAACAUGAGGAUCACCCAUGUAGAAGGGAUCCAAA [Mod 6 of Normal (20/19) by Nando, Round 1]	487	265
AAAGGGCGAGGAUAUACAUGAGGAUCACCCAUGUAAAAAACAUAAUAAAAGAAUUUAUGUAGAAGGCGCCCAAA [Ruby 60]	15.2	14.4
AAAGGGUCAGGAUAUCGAUUAAUAAUAAAAUAAAUGAAGAUCGAGAAGGGACAUGAGGAUCACCCAUGUAUAAC [May 79]	41.8	64.6
AAAGGGUCAGGAUAUGCACGAACAACAAAACAAAUAACGAUGCAGAAGGGACAUGAGGAUCACCCAUGUAUAAA [May 75]	33.4	52.1
